This passage reports Km, kcat and kcat/Km results from article PMC4334965, “Molecular Bases of Catalysis and ADP-Ribose Preference of Human Mn^2+-Dependent ADP-Ribose/CDP-Alcohol Diphosphatase and Conversion by Mutagenesis to a Preferential Cyclic ADP-Ribose Phosphohydrolase” (PLoS ONE, 2015).

What all share (assay type): biochemical, Homo sapiens
Conditions in all cases: 5 mM MnCl2, pH 7.5, 37°C

Substrate in data set [1]: C[N+](C)(C)CCOP(=O)(O)OP(=O)([O-])OC[C@H]1O[C@@H](n2ccc(N)nc2=O)[C@H](O)[C@@H]1O
Nature of the data set: colorimetric Pi assay coupled to alkaline phosphatase, saturation kinetics. The source says: (§1) colorimetric Pi assay coupled to alkaline phosphatase, saturation kinetics on human ADPRibase-Mn

Substrate in data set [2]: N=c1c2ncn3c2ncn1[C@@H]1O[C@H](COP(=O)(O)OP(=O)(O)OC[C@H]2O[C@@H]3[C@H](O)[C@@H]2O)[C@@H](O)[C@H]1O
Kind of data set: HPLC of N1-(5-phosphoribosyl)-AMP formed, saturation kinetics. An excerpt: HPLC of N1-(5-phosphoribosyl)-AMP formed, saturation kinetics on human ADPRibase-Mn

Substrate in data set [3]: Nc1ncnc2c1ncn2[C@@H]1O[C@H](CO)[C@H]2OP(=O)(O)O[C@H]21
Kind of data set: colorimetric Pi assay coupled to alkaline phosphatase, saturation kinetics.
Excerpt: as §1

Substitutions are numbered along the chain they refer to. Names and notes keep the numbering of the source.

B1: human ADPRibase-Mn (Homo sapiens; H111A) (protein)
chain: MDDKPNPEALSDSSERLFSFGVIADVQFADLEDGFNFQGTRRRYYRHSLLHLQGAIEDWNNESSMPCCVLQLGDIIDGYNAQYNASKKSLELVMDMFKRLKVPVHHTWGNAEFYNFSREYLTHSKLNTKFLEDQIVHHPETMPSEDYYAYHFVPFPKFRFILLDAYDLSVLGVDQSSPKYEQCMKILREHNPNTELNSPQGLSEPQFVQFNGGFSQEQLNWLNEVLTFSDTNQEKVVIVSHLPIYPDASDNVCLAWNYRDALAVIWSHECVVCFFAGHTHDGGYSEDPFGVYHVNLEGVIETAPDSQAFGTVHVYPDKMMLKGRGRVPDRIMNYKKERAFHC
notes: full length, 342 aa; expressed as GST fusion (pGEX-6P-3), GST cut off with PreScission protease, 11-aa N-terminal extension …
Turning to B1, in data set [1], the Michaelis-Menten constant (Km) (as a rule, the substrate concentration at which the rate is half of its maximum) stood at 7500 ± 700 µM; the kcat (commonly the maximal rate divided by the concentration of active sites) is 2.2 ± 0.2 s⁻¹; the kcat/Km (commonly the turnover number divided by the Michaelis constant) came to 300 ± 30 M⁻¹ s⁻¹.

B2: human ADPRibase-Mn (Homo sapiens; C253A/F37A/L196F) (protein)
chain: B1 chain with F37A, A111H, L196F, C253A
notes: as for B1
Take B2: in data set [2], the Michaelis constant (Km) was 460 ± 120 µM, the kcat came to 16 ± 3 s⁻¹ and the kcat/Km was 35500 ± 4300 M⁻¹ s⁻¹.

B3: human ADPRibase-Mn (Homo sapiens) (protein)
chain: B1 chain with A111H
notes: as for B1
For B3, the Km is 350 ± 60 µM in data set [1], 2400 ± 300 µM in data set [3] and 780 ± 200 µM in data set [2]. For the same protein, the kcat in data set [1] was determined as 50 ± 4 s⁻¹; in data set [3] it was 60 ± 13 s⁻¹; in data set [2], 3.2 ± 0.2 s⁻¹. The values for the kcat/Km in data set [1], in data set [3] and in data set [2] were 150000 ± 30000 M⁻¹ s⁻¹, 25000 ± 6000 M⁻¹ s⁻¹ and 4000 ± 1000 M⁻¹ s⁻¹, respectively.

B4: human ADPRibase-Mn (Homo sapiens; F210A) (protein)
chain: B1 chain with A111H, F210A
notes: as for B1
As to B4, in data set [1], the Km worked out at 11000 ± 2600 µM, the kcat is 50 ± 12 s⁻¹ and the kcat/Km amounted to 4000 ± 100 M⁻¹ s⁻¹.

B5: human ADPRibase-Mn (Homo sapiens; C253A) (protein)
chain: B1 chain with A111H, C253A
notes: as for B1
With B5, in data set [2], the Km is reported as 200 ± 40 µM, the kcat was found to be 8.9 ± 0.8 s⁻¹ and the specificity constant (kcat/Km) was determined as 44000 ± 9000 M⁻¹ s⁻¹.

B6: human ADPRibase-Mn (Homo sapiens; Q27H) (protein)
chain: B1 chain with Q27H, A111H
notes: as for B1
With B6, in data set [1], the Km worked out at 2700 ± 200 µM, the catalytic constant (kcat) worked out at 39 ± 12 s⁻¹ and the kcat/Km was determined as 14000 ± 3000 M⁻¹ s⁻¹.
